In paper PMC6546417 (Science (New York, N.Y.), 2009):
Residue numbers refer to the chain shown, from its start. Values joined by “and” are separate entries in the source; they are usually repeats but may differ in a detail not shown here. Identical values can stand only once.

T1: Dnm1K41A (yeast, UniProt P54861 1-757, K41A)
T1 sequence (looked up): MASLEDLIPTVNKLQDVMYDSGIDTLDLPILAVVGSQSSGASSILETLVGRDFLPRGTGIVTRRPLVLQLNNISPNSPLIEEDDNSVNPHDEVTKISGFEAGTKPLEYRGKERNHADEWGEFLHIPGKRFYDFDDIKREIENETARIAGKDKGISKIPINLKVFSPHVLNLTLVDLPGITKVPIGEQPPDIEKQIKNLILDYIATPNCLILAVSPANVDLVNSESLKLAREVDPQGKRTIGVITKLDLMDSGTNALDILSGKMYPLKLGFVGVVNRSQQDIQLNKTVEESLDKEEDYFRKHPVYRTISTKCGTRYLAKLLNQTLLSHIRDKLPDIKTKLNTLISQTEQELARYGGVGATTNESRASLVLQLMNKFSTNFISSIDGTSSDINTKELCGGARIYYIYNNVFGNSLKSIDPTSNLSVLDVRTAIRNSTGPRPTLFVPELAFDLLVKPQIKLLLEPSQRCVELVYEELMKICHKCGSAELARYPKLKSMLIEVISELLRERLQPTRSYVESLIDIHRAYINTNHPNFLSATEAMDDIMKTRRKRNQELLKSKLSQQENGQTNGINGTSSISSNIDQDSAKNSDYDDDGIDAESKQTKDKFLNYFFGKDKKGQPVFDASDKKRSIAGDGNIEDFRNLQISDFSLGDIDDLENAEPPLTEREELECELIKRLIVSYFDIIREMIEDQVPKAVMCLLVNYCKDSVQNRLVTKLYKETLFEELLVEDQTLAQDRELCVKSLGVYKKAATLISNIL

B1: Dnm1 (enzyme, yeast, UniProt P54861 1-757, looked up)
chain: T1 sequence (looked up) with A41K
B2: Mdv1 (natural protein, yeast, UniProt P47025 1-714, looked up)
chain: MSVNDQITHIGKTLSTTASAFLNYQKSNSNTQDVLTNNGPYKNLLSNTVNNASSTSYFYKRTEHGRFVKNASNTFEDIYSKTRRGDVFRNKFTDNKTCFRMLTYISDDLLNEIPTKEGLKSDADGKLLTEGGENENLRKNASKKETSLFQGFKSYLPIAELAIENTERLNYDTNGTSGTVGAKDVMSKTNERDEIHTELPNFQDSFLIPPGVETKKISSSYSPSALKSFSQTLVNSLEFLNIQKNSTLSEIRDIEVEVENLRQKKEKLLGKIANIEQNQLLLEDNLKQIDDRLDFLEEYGLEVIEANSDENAEDDGMSERKALKNDAIRNEGVTTESISSEASNLPPRRRQQLRDDNSLNRLGAFYSKSKKRHRKSFPTFQQLYEPGTKIGSIMSTHDDFLTCLDFDAPFGTLCTAGYLDHTVKIWDLSKQNKIGELAGHLATINCMQINRDYGTLVTGGRDAALKLWNLNLAQQLYQETQNLTSPTNHIDSPCVHTFEAHTDEVTALSLDPSFLVSGSQDRTIRQWDLRSGKCLQTIDLSFANVLTTSTNVDLSKSTLLTQRNERPSIGALQSFDAALATGTKDGVVRLWDLRSGKVIRTLKGHTDAITSLKFDSACLVTGSYDRTVRIWDLRTGLLNKFHAYSAPVLSLDLFQENAAVVVADEPSVQIYDSEKDESWSCVEQGNETSVSTVKYKENYMVEGRENGDVNIWAV

Assays:
[1] = target: the molecule itself; assay: negative-stain electron microscopy
[2] = target: B1; assay: cell-based or functional assay
[3] = target: the molecule itself; assay: cross-linking
[4] = target: the molecule itself; assay: SEC + other: sucrose gradient sedimentation
[5] = target: T1, Dnm1K41A; assay: liposome flotation

Binder | binding result [1] | amount of GTP cross-linked to Dnm1 by ultraviolet light on addition of Mdv1 [2] [fold] | stoichiometry N [3] | stoichiometry N [4] | binding result [5]
B1 | binds |  |  |  | 
B2 |  | 1.4 | 4 and 6 | 2 | binds
